Measurements taken from the DeepSol protein solubility set.

assay: soluble on expression in E. coli; label from the status in PepcDB or PDB records

Sequence	soluble on expression in E. coli
MGSDKIHHHHHHMDTDLLKTFLEVSRTRHFGKAAENLYLTRSAVSFRVKQLESILGVALFERQRNNIQPTPAGERMLGHAEAVLTAWERAKQDVSLSQLQSTQLAIGAGPNIWDAYLQGYLQGLHVGLPGVALRTEVLPANAMTRQLMDRTLDIAISFDPPKLDQFELVQLGQINLLLVSSLKGQTGTAVLPGQYVKVDWGTAFNIVHAQEYASLPVPTLHTSSARIALDFILNNGGCAFLPEHLVQHALHSGELHHVSGASAISRNVYVAYWAENDRLAQIKQAIDFLRDDGSVFAHATI	not soluble
MGSDKIHHHHHHMGEIMKFYDREKELNYLKTYCQLEPNSILFVYGPKSSGKSTVMRRVIKELENSNIVFFYYNLRKYATPTRDEFLRVFFEKSDKKYLLNKLELNLGVCKFGIEENFDFNNLCLNDVFAKINESINAVVEEGKKPVLIIDELQKLKNIYFNGGKSLLNELFNLFVSLTKMEHLCHVICLTSDTLFIDEIYRNSTLKNASEYYLIDWLRKGTIRNILKEEGFSEEEINYALDYLSLPYEISQLINNKKLGLSVEQTIKQWINVEKDGLKYLIDTTDLDEEGLYNVLSKFKDKIKISYDKEVKKEEMKYLKFLIENEILFYDVINGIIKPTSIIEWHAIKEIINAMQ	not soluble
MTTRNPNRCPSHPGEILAESLEHLNASKTEIARILQISRQHLHGILKGERPVTAVTAARIGKLLGNGPALWLQLQANYDTWHALRDIDVSSIPTLTANEVDTQMEHSHS	not soluble
MEAEELTVGRVHHGHNIRRFRIEKNMNQEVLSQLVHLSQSAVSKYEQMRVIDDEMLHRFSRALGVPFEYLKSLEEDAQTVVFENNTVNNNDQASANIGGYVEENNRVNNYNPIEKITELYERLLKEKDEKYAALERRLQNIEQSLQK	not soluble
MAMVPAKSLATTCVASKRMMWQIPEKWTMEEASTVPCVYSTVYYALVVRGQMKKGEKILIHAGSGGVGQAAISVALAHGLTVFTTVGSKEKREFLLKRFPKLQERNIGNSRDTSFEQLVLRETKGRGVDLVLNSLSEEKLQASIRCLGLNGRFLEIGKFDLSNNSPLGMSVFLKNTSFHGILLDSVMEGEEEMQNQVVSLVAEGIKTGAVVPLPTSVFNDQQVEQAFRFMASGKHIGKVVIK	soluble
MMGCLPTKQVGRSTHSLNPREAVALAAETSFTVNEVEALYDLFRKLSNSIIKDGLIHKEEFHLALFRNKKTNLFVDRVFDLFDQKGNGVIEFDEFVRSLSVFHPDAPEEQKAGFAFKLYDLRQTGFIERHELKEMVLALLDESDLNITSDAVEMIVDRTFDQADTKGDERIDQEEWNEFVKNNPYVLRNMTLPYLKDLTMVFPSFVIHSEVSEADMVA	soluble
MGSDKIHHHHHHMSVHSEVLHALLKDPFIQKLIDAEPVFWANSGKKEGPLPRADEWATEIAEAEKRMQRFAPYIAEVFPETKGAKGIIESPLFEVQHMKGKLEAAYQQPFPGRWLLKCDHELPISGSIKARGGIYEVLKYAENLALQEGMLQETDDYRILQEERFTGFFSRYSIAVGSTGNLGLSIGIIGAALGFRVTVHMSADAKQWKKDLLRQKGVTVMEYETDYSEAVNEGRRQAEQDPFCYFIDDEHSRQLFLGYAVAASRLKTQLDCMNIKPSLETPLFVYLPCGVGGGPGGVAFGLKLLYGDDVHVFFAEPTHSPCMLLGLYSGLHEKISVQDIGLDNQTAADGLAVGRPSGFVGKLIEPLLSGCYTVEDNTLYTLLHMLAVSEDKYLEPSALAGMFGPVQLFSTEEGRRYAQKYKMEHAVHVVWGTGGSMVPKDEMAAYNRIGADLLKKRNGK	not soluble
MKTKYVVIIQCDMAKNRCSGMRCTNAFYEKTDAFENYAKDTKYISFTCGGCSGKVVSSKLANFSRWLKKYDCIKKDEVTIHLSSCMSTDNSHYDRCPNIDYIKQIINKKGYTNIVEGSIFSKKSEKLRDEGIYKKYQ	not soluble
MGSDKIHHHHHHMTLYLGIDTSAYTTSLAIVDEQAELVYENRKILTVPEGERGLAQSAALFQHVQNLPQLVTAVPPQYWEKVSALGVSTAPRPIQESYMPVFLPGYGVAAAMASARCIPLVETSHQEGHLAAGIASSKLKEPHFLAIHISGGTTELLEVHHTQPGKLDIQLLGGTTDLHAGQFVDRVGVRLGLPFPAGKSLEELARQADPGAAAWLPSAVRGFEVSFSGVETAAQRLIDQGKNPADVARAVEGCIVRTLGKLLQAGMEKTTLSEILIVGGVASNQFIRQELKKRLARHANLHWAEPDWSRDNAIGVALLALEKVRGCII	not soluble
MAELISFVVPTQSDKVLLVWDLSTGPPAEALSHSLFTVFSQFGLLYSVRVFPNAAVARPGFYAIIKFYSSRDAQRAQKACDGKPLFQTSPVKVRLGTRHKALQHQAFALNSSRCQELANYYFGFSGWSKRIIKLQELSGLEDAALAVPMQKGSPQFLCAVEVVLPPYGCRSPGVGISEEPLRQLEEGQSSFLMKRKTAQKLAFQAAVSDAFQKLTIVVLESGRIAVEYRPTAEDLDARSEEELQNLIQVSCSSWSQSSQREEECLSDFSLEEEDLKLCDPH	soluble
MPDESAQVRFLIVGRTGWIANMVAELLEQRGERYAFASFRLEQREACELELDALRPQRVLNCAGVTGRPNVDWCEDHRRETVRSNVLGVLNLADCCASRGIHLTNFATGCLYHYDDGEHRPTAEGGRPFTEDDPPNFFGSYYSRTKAMVEELLRSAFDNVLILRLRMPVSDDLSPRSFVAKIARYEKVVNIPNSMTVLTELLPVALDMSERGLTGVYNFTNPGSISHNEVLELYRKYIDPKFQWKNFTLEEQAKILKAGRSNCELDVRKLLRDNPGAQIREVHAAMEEVFRRMQAKGVKPLAAP	not soluble
MAHHHHHHMFSSHKTPAKAQRDGYDDEQHLVAAVSEFKKVEASNQSMVDQLHQRLASPFQITAKPCEAGRAAVLQCYQQLQSSSAVTTSNAASSTSPAPPPGARSDSKSAKVAPAEAWLSIPYQQCYETALAYHQCVEDTLAKHLALVAAFEQCGTQQKIAHQSAMKAQDKPQ	soluble
MEEWVREQYGMRVERLERSGRHAAFWHRQERFLLVPADGQSEAEMEERQQMSRYLRAKGVDGVGELVKTTSGTYIASYNGQPLALVRAPLPASRFRSLGRELAVMHECGRTCPWPIVACRRIGQWRELWAKRIDQMEAFWSSKLASGPSSLFDRLFIESFPYYLGLAENAVQYVADTEIDEEPGRIDYAAFCHERLPEAKWVGGGEAKLPTDWVYDHCARDLAEWVRHLYEKSGLGCQRAVRQFFQEYEHAAPLSPFAWRLVYARLLFPLSYFECVEAYYIAVDESERTRREGELRRLLDRSHEYERFLASFAKIAGISNRIRLPAVEWLPPA	not soluble
MASQLLINDSKYGFLKELGLTENNAGVFHGKWAASGQVVQSFAPANNSPIANVQNGNVQDYEIAISEAKKAYNDWCEVPAPRRGEIVRQIGDKLRTQLQNLGKLVSLEMGKISAEGVGEVQEYVDICDYATGLSRSLEGKIFPSERPGHALLEQWNPLGVVGVISAFNFPCAVYGWNNALALVTGNSVVWKPAPSTPLTAIAVTKLVEEVLVANNVNPALCSLVCGEGDVGQALVKDKRVNLVSFTGSSEIGKIVGQQVQARFGKLLLELGGNNAIIVNEDADLNMVVPATVFAAVGTAGQRCTTTRRLIVHDKVYDQVLERLKKAYAQFESRIGCPLDSNTIIGPLHNQQAVGKYKASVAEAVASGGKIEYGGKVLERDGNFVLPTIVTGLKHDSPVVLRETFAPILYVLKFSTLEEAIAINNEVDQGLSSSLFTTNIQNVFKWMGPKGSDCGIVNVNIPTSGAEIGGAFGGEKETGGGRESGSDSWRQYMRRSTCTINYSKELPLAQGIKFE	not soluble
MGSDKIHHHHHHMSFFDTLSGLSREQLRMALYSTTPAQVETAIEGEQGNLGHLLALLSPAAEEYLEPMAQRAAALTRQRFGHNIGLYLPLYLSNLCANECDYCGFTMSNKLKRKVLSHDELAAEMAVIKPQGFDSILLVSGEHETKVGIEYFADILPLVKAEFSHVAMEVQPLSREHYEILVEKGLDAVMLYQETYDPETYRRHHLRGNKQDYGYRLASPERIAQAGVDKIGLGVLLGLDDWRMDALLMGYHLDYLERRFWRSRYSISLPRLRPCVGGITPKVQLTDKGLVQLICAFRLFNEQLEISLSTRETPSLRDNLLGLGITQMSAGSRTEPGGYVNPAAQLDQFEISDERSAAEVASVLRSRGFTPVWKDWEAGWIGAG	not soluble
STGNAGEWCLMESDPGVFTELIKGFGCRGAQVEEIWSLEPENFEKLKPVHGLIFLFKWQPGEEPAGSVVQDSRLDTIFFAKQVINNACATQAIVSVLLNCTHQDVHLGETLSEFKEFSQSFDAAMKGLALSNSDVIRQVHNSFARQQMFEFDTKTSAKEEDAFHFVSYVPVNGRLYELDGLREGPIDLGACNQDDWISAVRPVIEKRIQKYSEGEIRFNLMAIVSDRKMIYEQKIAELQRQLAEEPMDTDQGNSMLSAIQSEVAKNQMLIEEEVQKLKRYKIENIRRKHNYLPFIMELLKTLAEHQQLIPLVEKAKEKQNAKKAQETK	soluble
MPSSSPSMDESRRSAVPPKEPAGRICTVCSDRANGYNFGVLTCESCKAFFRRNASKHKEIKCPFSDSCQITSASRKFCQACRLNKCFAVGMNSEWLNDLKPKSSIVSGKFKRKKPDMKNNLKVEVDDTEEDLENDDEEQISVPKALLEKLINKANEKSKDRCTCKCQCGFYPITQRLTAYEPKDTTAVNSPQDISFSHHLHHSDSFYSSSTSTLSPMSVISCAPSSHDSSGYNTSQLVTQSPTNYTVSPASIPSSITELSPQMPSQYPPMLSPFQFGVMAQMAAPANFLNFPPMPERTWTPIQAVSTVPVTETLPPNLLEQIHSKIDKYIGVLNEDEITLLEELHVQNEPLNAPLIQWHNPKSIDGVFRIIEEALRRIVNMACQLSLFRELHVDDRKNLLKSGFGELLIVRGLMAYDKSDNSWNHSFGVRGKMEVKVEVLKNPKLEEHYKAHMNLLSTFGEDVRNNEHLMLIFNAAVIFHPHVSNLRDSKRVHSTQAKYFQMLLKLLTFEYGKSRADIAYSNLLNQVVELHRVNRTLLRVFYGLDIAQLDPLIRELCSFE	not soluble
MSGILALGAYVPERVMTNADFEAYLDTSDEWIVTRTGIKERRVAAEDEYTSDLAFKAVEDLLRRHPGALEGVDAVIVATNTPDALFPDTAALVQARFGLKAFAYDLLAGCPGWIYALAQAHALVEAGLAQKVLAVGAEALSKIIDWNDRATAVLFGDGGGAAVVGKVREGYGFRSFVLGADGTGAKELYHACVAPRLPDGTSMKNRLYMNGREVFKFAVRVMNTATLEAIEKAGLTPEDIRLFVPHQANLRIIDAARERLGLPWERVAVNVDRYGNTSTASIPLALKEALDAGRIREGDHVLLVSFGAGLTWAAAVLTWGGA	soluble
MVRVYIGRFPNRASDRDAEHFFCDYGKLPDAIMKNVFGVGCKDFQDQSDADDIICDEQTRILLVEKLKNAKEYPTINHD	not soluble
SEGWAGRVRRHLAGDPARGPTMDVLAAELGVSVRTLRRRLADEGTDYETVVDEIREALAEALLATTTLTVAEVSERLGYSEPSAFARAFRRWKAMSPNEYRRSA	soluble
MAANFWNSSHYKQLLDPEEVDVVHDLDKERGISIDDFKLIKFHMSNHIMKLAQHIKVRQRVVATAITYMRRVYIRKSMVEFEPRLVALTCLYLASKAEESIVQARNLVFYIKRLYPDEYNKYELKDILGMEMKVLEALDYYLVVFHPYRSLSEFLQDAALNDVNMNQITWGIVNDTYKMDLILVHPPYRIALACIYIASVHREKDITAWFEDLHEDMNLVKNIAMEILDFYENYRTITEEKVNSAFSKLALKL	soluble
